Experimental data: patent US20040146512A1 (RINAT NEUROSCIENCE, published 2004)

Legend:
Aβ1-40 peptide = target: T1, Aβ1-40 peptide; assay: Affinity Kd of Table 2; method and format not stated in Example 1
T1 construct: Synthetic peptide, also the immunogen; also called Aβ peptide; β-amyloid peptide 1-40

Aβ1-42 peptide [1] = target: T2, Aβ1-42 peptide; assay: ELISA: peptide immobilized on plate + Ab + GAMIgG(Fc)HRP, absorbance 490 nm
T2 construct: also called 1-42 (WT); β-amyloid peptide 1-42

Aβ1-43 peptide [2] = target: T3, Aβ1-43 peptide; assay: as above
T3 construct: also called 1-43 (WT); β-amyloid peptide 1-43

[3] = target: T4, beta amyloid precursor protein (βAPP) (Homo sapiens, UniProt P05067 18-770); assay: ELISA: β-APP (gD) immobilized on plate + Ab + GAMIgG(Fc)HRP, absorbance 490 nm; antibody concentration not given
T4 construct: also called amyloid beta (A4) precursor protein
T4 sequence (P05067 other isoform, or with tags, fused parts or gaps limits assumed): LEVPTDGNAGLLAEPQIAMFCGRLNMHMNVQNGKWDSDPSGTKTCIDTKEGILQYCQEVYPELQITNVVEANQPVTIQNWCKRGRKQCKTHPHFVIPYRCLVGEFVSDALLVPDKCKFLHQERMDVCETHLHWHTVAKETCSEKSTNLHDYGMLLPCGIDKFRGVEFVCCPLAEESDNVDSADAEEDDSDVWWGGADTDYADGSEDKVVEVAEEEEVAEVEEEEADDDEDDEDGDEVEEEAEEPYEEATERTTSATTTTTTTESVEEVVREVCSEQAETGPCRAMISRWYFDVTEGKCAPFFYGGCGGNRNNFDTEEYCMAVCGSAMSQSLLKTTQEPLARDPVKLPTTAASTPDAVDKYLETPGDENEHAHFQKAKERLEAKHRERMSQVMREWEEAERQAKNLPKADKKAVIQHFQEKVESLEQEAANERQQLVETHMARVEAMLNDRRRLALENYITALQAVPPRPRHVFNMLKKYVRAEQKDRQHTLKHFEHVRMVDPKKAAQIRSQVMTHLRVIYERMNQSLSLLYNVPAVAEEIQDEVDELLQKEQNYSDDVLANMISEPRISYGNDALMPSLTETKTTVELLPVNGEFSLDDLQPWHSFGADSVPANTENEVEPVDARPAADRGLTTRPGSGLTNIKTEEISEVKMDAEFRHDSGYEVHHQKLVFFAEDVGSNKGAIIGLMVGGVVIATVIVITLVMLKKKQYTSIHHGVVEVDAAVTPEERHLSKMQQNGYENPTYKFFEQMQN

[4] = target: T5, Wild-type Aβ1-40 expressed as GST fusion protein (Homo sapiens (Human), UniProt P05067 672-711); assay: ELISA: GST fusion protein immobilized 0.25 µg per well, antibody at 2 nM, biotin goat anti-mouse (H+L) + streptavidin-HRP, OD450
T5 construct: Expressed in E. coli; also called Aβ1-40 (WT) GST fusion; WT Aβ1-40; not shown: Glutathione-S-Transferase (GST) fusion partner, Amersham Pharmacia Biotech system

[5] = target: T6, Aβ1-41 expressed as GST fusion protein (Homo sapiens (Human), UniProt P05067 672-712); assay: as above
T6 construct: also called 1-41 (WT); not shown: Glutathione-S-Transferase (GST) fusion partner, Amersham Pharmacia Biotech system
T6 sequence (P05067 672-712): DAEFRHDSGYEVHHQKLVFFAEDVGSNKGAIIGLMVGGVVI

[6] = target: T7, Aβ1-40 variant V36A expressed as GST fusion protein (Homo sapiens (Human), UniProt P05067 672-711, Expressed as a GST fusion protein; the GST part is left out.); assay: as above
T7 construct: also called V36A (1-40); not shown: GST fusion partner and its linker
T7 sequence (P05067 672-711 V707A limits assumed): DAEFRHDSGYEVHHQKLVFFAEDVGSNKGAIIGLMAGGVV

[7] = target: T8, Aβ1-40 variant V39A expressed as GST fusion protein (Homo sapiens (Human), UniProt P05067 672-711, Expressed as a GST fusion protein; the GST part is left out.); assay: as above
T8 construct: also called V39A (1-40); not shown: GST fusion partner and its linker
T8 sequence (P05067 672-711 V710A limits assumed): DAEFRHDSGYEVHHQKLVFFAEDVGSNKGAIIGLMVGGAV

[8] = target: T9, Aβ1-40 variant V40A expressed as GST fusion protein (Homo sapiens (Human), UniProt P05067 672-710, Expressed as a GST fusion protein; the GST part is left out.); assay: as above
T9 construct: also called V40A (1-40); not shown: GST fusion partner and its linker
T9 sequence (P05067 672-711 V711A limits assumed): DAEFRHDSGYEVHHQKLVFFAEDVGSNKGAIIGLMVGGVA

Aβ1-16 peptide [9] = target: T10, Aβ1-16 peptide; assay: SPR (Biacore 3000) competition: antibody 100 nM over biotin-Aβ1-40 on a streptavidin chip, with soluble peptide at 1000 nM; % of maximal binding
T10 construct: Soluble fragment from American Peptide Company
T10 peptide: DAEFRHDSGYEVHHQK

Aβ1-28 peptide [10] = target: T11, Aβ1-28 peptide; assay: as above
T11 construct: Soluble fragment from American Peptide Company

Aβ1-38 peptide [11] = target: T12, Aβ1-38 peptide; assay: as above
T12 construct: Soluble fragment from American Peptide Company

Aβ1-42 peptide [12] = target: T2, Aβ1-42 peptide; assay: ELISA: peptide immobilized on plate + Ab + GAMIgG(Fc)HRP, absorbance 490 nm; antibody concentration not given
Aβ1-43 peptide [13] = target: T3, Aβ1-43 peptide; assay: as above
[14] = target: T6, Aβ1-41 expressed as GST fusion protein; assay: ELISA: GST fusion protein immobilized 0.25 µg per well, biotin goat anti-mouse (H+L) + streptavidin-HRP, OD450
Aβ1-16 peptide [15] = target: T10, Aβ1-16 peptide; assay: SPR (Biacore 3000) competition: antibody over biotin-Aβ1-40 on a streptavidin chip, with soluble peptide; % of maximal binding
Aβ1-28 peptide [16] = target: T11, Aβ1-28 peptide; assay: as above
Aβ1-38 peptide [17] = target: T12, Aβ1-38 peptide; assay: as above
[18] = target: T13, Aβ1-40 polypeptide coupled to biotin, immobilized on a streptavidin-coated chip (coupled to biotin (position not given)); assay: SPR (BIAcore 3000), Fab over biotin-Aβ1-40 on SA chip, 'Steady-State' method
T13 construct: From Global Peptide Services; Used in the SPR assays; also called biotinylated Aβ peptide 1-40; immobilized Aβ1-40

B1: monoclonal antibody 2324 (produced by hybridoma 10B10.2E6) (antibody, V domains shown)
VH: VTLKESGPGILKPSQTLSLTCSFSGFSLSTSGMGVGWIRQSSGKGLEWLAHIWWDDDKYYNPSLKSQLTISKDTSRNQVFLKITSVDTADTATYYCARRGVRHRDYFDYWGQGTTLTVSS
VL: DVLMTQTPLSLPVSLGDQASISCRSSQSIVHSNGNTYLEWYLQKPGQSPKLLIYKVSNRFSGVPDRFSGSGSGTDFTLKISRVEAEDLGVYYCFQGSRVPLTFGAGTKLELKR
- Kd (Aβ1-40 peptide): 0.9 nM
- binding result (Aβ1-42 peptide [1]): binds
- binding result (Aβ1-43 peptide [2]): binds
- binding result [3]: no binding
- binding result [4]: binds
- binding result [5]: binds
- binding result [6]: binds
- binding result [7]: binds
- binding result [8]: binds
- binding result (Aβ1-16 peptide [9]): binds
- binding result (Aβ1-28 peptide [10]): binds
- binding result (Aβ1-38 peptide [11]): binds

B2: monoclonal antibody 2286 (produced by hybridoma 8A1.2A1) (antibody, V domains shown)
VH: EVKLLESGGGLVQPGGSLKLSCAASGFDFSRYWMNWVRQAPGKGLEWIGEINPDSSTINYTPSLKDKFIISRDNAKNTLYLQMSKVRSEDTALYYCARQMGYWGQGTTLTVSS
VL: DIQMTQTTSSLSASLGDRVTISCSASQGISNYLNWFQQKPDGTVKLLIYYTSSLHSGVPSRFSGSGSGTDYSLTISNLEPEDIATYYCQQYRKLPYTFGGGTKLEIKR
- Kd (Aβ1-40 peptide): 2.7 nM
- binding result (Aβ1-42 peptide [12]): no binding
- binding result (Aβ1-43 peptide [13]): no binding
- binding result [14]: no binding (tested: 2 nM)
- binding result (Aβ1-16 peptide [15]): no binding
- binding result (Aβ1-28 peptide [16]): no binding
- binding result (Aβ1-38 peptide [17]): no binding
- binding result [6]: binds
- binding result [7]: binds
- binding result [8]: binds

B3: Mouse 2286 Fab (Fab, V domains shown)
VH: B2 VH
VL: B2 VL
- Kd [18]: 76 nM
